In assay [1] the target is Fc-tagged secreted perlecan DII (sDII), as purified in Fig. 1D. The assay can be described thus: in vitro saturation binding analysis; sDII 10.0 pM with increasing LDL (supplementary Fig. 1); further conditions not shown.
The target in assay [2] is sialidase C-treated Fc-tagged WT perlecan DII. The assay can be described thus: pull-down; Fc-tagged proteins on protein-A agarose incubated with human LDL (10 μg in Fig. 1E/F with 500 ng protein; 1.5 μg in Fig. 5D); 20 mM HEPES pH 6.0, 10 mM NaCl, 1% BSA, room temperature 1 h; blot with anti-LDL or anti-ApoB antibody.
For assay [3], the target named is Fc-tagged WT perlecan DII from WT CHO cells (UniProt P98160). The experiment in a line: pull-down; Fc-tagged proteins on protein-A agarose incubated with human ApoB-100 (5 μg); 20 mM HEPES pH 6.0, 10 mM NaCl, 1% BSA ('optimal binding condition'), room temperature 1 h; blot with anti-ApoB antibody, quantified from three experiments.
The target in assay [4] is Fc-tagged perlecan DI+II from WT CHO cells (UniProt P98160). The assay is described as above.
Assay [5] deals with Fc-tagged WT perlecan DII from WT CHO cells (UniProt P98160). The assay can be described thus: radioligand binding; stable WT CHO cell lines expressing Fc or Fc-tagged proteins, binding of [I^125]labeled LDL (supplementary Fig. 3).
Assay [6] has as its target Fc-tagged perlecan DI+II from WT CHO cells (UniProt P98160). The assay is described as above.
For assay [7], the target named is Fc-tagged perlecan DI from WT CHO cells (UniProt P98160). The assay is described as above.

Chain of human ApoB-100 (P04114 28-4563): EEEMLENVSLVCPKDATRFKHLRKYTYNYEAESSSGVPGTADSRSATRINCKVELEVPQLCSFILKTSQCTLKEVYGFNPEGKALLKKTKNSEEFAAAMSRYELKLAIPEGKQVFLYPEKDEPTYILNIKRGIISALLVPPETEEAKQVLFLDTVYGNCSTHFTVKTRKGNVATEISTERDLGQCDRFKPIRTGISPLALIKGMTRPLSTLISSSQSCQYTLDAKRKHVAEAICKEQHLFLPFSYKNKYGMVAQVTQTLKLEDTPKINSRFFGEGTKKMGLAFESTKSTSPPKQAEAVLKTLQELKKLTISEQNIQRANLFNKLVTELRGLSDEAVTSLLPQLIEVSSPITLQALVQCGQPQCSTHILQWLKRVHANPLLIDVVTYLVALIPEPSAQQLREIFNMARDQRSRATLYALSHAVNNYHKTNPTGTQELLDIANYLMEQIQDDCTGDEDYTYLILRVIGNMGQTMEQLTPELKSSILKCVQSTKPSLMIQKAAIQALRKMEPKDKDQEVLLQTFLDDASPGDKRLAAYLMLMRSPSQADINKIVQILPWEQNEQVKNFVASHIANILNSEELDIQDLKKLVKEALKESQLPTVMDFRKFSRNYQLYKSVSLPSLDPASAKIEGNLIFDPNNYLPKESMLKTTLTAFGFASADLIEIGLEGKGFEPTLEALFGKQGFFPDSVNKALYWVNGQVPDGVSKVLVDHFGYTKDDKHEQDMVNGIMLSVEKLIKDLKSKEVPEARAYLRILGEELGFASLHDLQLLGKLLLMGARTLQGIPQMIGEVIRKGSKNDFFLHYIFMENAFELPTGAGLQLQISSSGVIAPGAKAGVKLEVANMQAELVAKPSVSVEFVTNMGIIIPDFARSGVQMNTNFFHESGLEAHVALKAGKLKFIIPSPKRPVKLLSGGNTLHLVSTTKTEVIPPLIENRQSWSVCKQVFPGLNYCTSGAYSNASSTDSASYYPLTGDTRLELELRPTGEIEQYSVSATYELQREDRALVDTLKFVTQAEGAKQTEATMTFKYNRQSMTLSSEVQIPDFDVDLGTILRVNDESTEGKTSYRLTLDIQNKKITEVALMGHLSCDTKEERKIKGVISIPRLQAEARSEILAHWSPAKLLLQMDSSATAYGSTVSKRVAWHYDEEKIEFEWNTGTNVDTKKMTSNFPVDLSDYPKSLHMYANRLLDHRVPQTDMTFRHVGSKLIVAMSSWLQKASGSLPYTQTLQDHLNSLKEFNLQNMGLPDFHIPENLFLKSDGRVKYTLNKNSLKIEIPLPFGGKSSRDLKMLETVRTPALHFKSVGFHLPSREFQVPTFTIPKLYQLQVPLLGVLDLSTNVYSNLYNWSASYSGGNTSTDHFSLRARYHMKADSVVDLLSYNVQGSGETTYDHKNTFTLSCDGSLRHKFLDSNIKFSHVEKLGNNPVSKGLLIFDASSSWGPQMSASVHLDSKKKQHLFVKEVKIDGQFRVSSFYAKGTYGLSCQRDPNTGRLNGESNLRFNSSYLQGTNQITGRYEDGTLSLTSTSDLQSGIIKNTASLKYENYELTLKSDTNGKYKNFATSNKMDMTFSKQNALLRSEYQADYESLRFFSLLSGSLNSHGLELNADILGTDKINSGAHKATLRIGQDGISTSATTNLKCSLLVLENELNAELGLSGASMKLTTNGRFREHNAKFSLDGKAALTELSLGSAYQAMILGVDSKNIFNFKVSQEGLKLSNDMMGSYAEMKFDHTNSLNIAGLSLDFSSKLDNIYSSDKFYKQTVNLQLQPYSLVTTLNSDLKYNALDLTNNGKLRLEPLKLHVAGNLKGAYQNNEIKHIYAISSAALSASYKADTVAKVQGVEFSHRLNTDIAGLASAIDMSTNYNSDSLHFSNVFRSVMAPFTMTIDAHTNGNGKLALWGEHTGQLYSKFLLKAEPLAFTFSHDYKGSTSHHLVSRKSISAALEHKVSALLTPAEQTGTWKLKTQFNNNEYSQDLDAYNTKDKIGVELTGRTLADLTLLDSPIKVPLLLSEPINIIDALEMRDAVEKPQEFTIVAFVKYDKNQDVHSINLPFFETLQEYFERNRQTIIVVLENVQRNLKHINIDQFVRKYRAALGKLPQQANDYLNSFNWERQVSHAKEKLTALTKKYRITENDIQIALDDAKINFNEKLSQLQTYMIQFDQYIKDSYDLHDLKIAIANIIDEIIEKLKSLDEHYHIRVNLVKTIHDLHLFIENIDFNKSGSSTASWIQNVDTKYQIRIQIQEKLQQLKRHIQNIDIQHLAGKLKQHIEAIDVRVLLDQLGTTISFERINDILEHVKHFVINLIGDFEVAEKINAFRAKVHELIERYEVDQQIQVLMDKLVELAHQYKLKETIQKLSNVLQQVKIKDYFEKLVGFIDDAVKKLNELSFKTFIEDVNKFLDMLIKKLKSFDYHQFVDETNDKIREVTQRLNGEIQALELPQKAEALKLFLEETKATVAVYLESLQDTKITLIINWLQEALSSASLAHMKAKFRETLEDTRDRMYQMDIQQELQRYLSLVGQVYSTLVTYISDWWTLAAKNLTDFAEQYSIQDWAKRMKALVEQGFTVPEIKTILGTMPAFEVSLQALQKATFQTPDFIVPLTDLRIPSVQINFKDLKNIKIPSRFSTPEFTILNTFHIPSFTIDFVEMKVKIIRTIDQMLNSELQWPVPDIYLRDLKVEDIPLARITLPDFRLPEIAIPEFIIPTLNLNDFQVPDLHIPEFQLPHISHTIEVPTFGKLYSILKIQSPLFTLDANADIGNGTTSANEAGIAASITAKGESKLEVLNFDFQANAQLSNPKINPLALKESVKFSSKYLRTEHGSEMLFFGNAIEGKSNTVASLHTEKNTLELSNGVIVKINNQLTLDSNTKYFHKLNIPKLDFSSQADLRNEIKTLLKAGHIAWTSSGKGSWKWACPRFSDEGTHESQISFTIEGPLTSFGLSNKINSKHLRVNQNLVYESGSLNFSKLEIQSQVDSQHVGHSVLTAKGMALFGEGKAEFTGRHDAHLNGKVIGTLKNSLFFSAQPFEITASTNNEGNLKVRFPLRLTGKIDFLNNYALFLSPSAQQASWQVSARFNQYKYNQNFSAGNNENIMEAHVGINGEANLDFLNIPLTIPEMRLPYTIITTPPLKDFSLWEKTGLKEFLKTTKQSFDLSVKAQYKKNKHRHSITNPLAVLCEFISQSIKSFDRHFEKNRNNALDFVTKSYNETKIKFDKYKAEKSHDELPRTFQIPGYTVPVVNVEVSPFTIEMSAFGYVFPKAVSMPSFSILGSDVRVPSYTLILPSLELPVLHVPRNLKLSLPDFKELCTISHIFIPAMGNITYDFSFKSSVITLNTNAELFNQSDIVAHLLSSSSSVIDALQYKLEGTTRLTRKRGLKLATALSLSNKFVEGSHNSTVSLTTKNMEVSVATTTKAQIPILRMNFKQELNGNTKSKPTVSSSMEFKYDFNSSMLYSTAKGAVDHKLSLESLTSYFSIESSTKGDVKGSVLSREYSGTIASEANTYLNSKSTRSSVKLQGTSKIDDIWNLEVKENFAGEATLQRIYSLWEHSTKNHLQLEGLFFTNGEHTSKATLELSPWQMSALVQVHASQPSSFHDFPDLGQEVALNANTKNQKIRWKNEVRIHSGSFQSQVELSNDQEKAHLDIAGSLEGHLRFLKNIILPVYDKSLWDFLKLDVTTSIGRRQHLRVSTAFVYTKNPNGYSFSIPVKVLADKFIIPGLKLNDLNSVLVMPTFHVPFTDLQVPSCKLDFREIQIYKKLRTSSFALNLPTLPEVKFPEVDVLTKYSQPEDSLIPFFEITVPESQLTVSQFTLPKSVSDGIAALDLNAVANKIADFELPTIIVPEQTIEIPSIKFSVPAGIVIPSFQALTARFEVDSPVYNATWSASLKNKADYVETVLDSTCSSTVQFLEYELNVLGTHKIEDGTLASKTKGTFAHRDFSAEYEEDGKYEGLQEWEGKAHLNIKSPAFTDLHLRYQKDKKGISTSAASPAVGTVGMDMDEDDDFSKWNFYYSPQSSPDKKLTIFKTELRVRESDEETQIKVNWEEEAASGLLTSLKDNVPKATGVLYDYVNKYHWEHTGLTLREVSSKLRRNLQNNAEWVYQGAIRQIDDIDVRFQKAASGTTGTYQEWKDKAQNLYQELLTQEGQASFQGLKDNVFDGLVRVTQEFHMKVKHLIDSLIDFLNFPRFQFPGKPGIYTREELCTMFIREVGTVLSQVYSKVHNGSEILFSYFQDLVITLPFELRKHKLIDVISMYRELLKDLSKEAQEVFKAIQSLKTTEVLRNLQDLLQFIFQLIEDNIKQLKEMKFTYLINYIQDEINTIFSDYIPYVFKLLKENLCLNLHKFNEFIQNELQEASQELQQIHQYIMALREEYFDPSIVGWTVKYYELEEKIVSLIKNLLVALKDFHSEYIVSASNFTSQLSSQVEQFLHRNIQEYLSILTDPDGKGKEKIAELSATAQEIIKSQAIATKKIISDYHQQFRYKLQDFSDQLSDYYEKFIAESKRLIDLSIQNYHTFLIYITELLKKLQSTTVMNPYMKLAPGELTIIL

For the substance human LDL (complex), in assay [1], the LDL concentration at which binding to sDII (10.0 pM) became saturated came out at 16.3 pM. The same substance yielded a percent reduction of binding against mock-treated WT DII in assay [2] of 50%.

Consider “human ApoB-100 (from UniProt P04114 28-4563) (natural protein)”, for which the percent increase of binding over WT DI in assay [3] turned out to be 24%. Also, in assay [4], the percent increase of binding over DI alone came out at 90% and the percent increase of binding over WT DII worked out at 53%.

Take [I^125]labeled LDL (complex): the values for the percent increase of [I^125]LDL binding to cells in assay [5], in assay [6] and in assay [7] were 31%, 43% and 26%, respectively.

These data come from publication PMC4306681.
